Molecular target: ush_drome ush (UniProt Q9VPQ6)
Sequence (Q9VPQ6 whole entry): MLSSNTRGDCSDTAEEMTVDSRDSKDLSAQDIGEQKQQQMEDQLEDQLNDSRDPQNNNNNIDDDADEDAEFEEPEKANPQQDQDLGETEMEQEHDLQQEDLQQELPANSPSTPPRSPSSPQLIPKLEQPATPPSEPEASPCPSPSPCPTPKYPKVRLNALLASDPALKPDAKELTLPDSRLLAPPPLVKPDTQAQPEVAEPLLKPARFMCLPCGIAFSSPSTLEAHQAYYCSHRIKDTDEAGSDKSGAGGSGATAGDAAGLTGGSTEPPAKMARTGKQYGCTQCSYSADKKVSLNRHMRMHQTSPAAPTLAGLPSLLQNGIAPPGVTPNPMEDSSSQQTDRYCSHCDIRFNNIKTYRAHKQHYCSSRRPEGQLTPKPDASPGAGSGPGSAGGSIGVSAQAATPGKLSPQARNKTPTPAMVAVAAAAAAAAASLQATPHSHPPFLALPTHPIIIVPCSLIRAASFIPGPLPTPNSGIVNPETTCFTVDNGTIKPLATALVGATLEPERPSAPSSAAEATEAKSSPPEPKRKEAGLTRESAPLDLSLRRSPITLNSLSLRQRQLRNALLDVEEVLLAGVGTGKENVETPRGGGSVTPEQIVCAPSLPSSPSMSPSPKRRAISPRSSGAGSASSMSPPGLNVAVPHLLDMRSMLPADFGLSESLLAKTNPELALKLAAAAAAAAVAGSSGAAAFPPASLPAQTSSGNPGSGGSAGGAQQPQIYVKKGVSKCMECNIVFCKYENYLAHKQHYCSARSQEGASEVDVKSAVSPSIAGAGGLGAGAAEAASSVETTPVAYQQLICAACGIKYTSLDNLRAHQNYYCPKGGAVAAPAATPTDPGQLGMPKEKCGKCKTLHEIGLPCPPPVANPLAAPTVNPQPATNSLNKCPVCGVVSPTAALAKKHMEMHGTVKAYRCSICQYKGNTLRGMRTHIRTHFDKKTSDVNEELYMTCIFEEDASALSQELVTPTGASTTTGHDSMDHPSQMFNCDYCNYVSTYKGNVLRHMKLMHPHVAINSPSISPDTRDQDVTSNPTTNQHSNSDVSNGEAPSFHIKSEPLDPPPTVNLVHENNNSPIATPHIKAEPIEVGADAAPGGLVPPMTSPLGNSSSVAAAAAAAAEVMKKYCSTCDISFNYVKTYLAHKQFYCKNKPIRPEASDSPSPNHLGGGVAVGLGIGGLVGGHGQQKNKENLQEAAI

Sequence of Erythroid transcription factor (Mus musculus), P17679 D218G (P17679 whole entry D218G): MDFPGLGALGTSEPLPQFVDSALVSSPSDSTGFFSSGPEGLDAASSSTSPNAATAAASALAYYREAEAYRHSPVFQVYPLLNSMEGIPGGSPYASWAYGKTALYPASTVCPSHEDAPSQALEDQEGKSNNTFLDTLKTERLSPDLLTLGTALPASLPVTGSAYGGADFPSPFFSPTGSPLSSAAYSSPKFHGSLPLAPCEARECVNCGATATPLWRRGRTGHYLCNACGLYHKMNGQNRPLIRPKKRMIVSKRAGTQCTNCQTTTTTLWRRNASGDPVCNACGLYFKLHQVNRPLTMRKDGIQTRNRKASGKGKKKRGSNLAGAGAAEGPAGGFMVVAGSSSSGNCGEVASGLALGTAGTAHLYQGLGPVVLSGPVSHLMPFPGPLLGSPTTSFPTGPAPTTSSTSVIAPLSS
Sequence of Erythroid transcription factor (Mus musculus), P17679 V205M (P17679 whole entry V205M): as the sequence (P17679 whole entry D218G) above, with V205M, G218D counted along it
Sequence of Erythroid transcription factor (Mus musculus), P17679 G208S (P17679 whole entry G208S): as the sequence (P17679 whole entry D218G) above, with G208S, G218D counted along it
Sequence of Erythroid transcription factor (Mus musculus), P17679 R216Q (P17679 whole entry R216Q): as the sequence (P17679 whole entry D218G) above, with R216Q, G218D counted along it

Row | Substance | effect of a mutation on the interaction
1 | Erythroid transcription factor (Mus musculus), P17679 G208S | disrupting interaction strength
2 | Erythroid transcription factor (Mus musculus), P17679 V205M | disrupting interaction strength
3 | Erythroid transcription factor (Mus musculus), P17679 D218G | with no effect
4 | Erythroid transcription factor (Mus musculus), P17679 R216Q | with no effect

Source: IntAct's records for PubMed 15644435
